Results on 1 molecule are retold here after patent US20240417440A1 (published 2024).

Experiment [1] addresses T1, NY-ESO-1/LAGE-1 peptide on HLA-A*02:01 (human).
T1 peptide: SLLMWITQC
Description: multimer staining.

In experiment [2] the target is T2, NY-ESO-1 peptide on HLA-A*02:01 (human).
T2 peptide: FTVSGNILTI
Description: cytokine release.

The target in experiment [3] is T3, NY-ESO-1 peptide on HLA-A*02:01 (human).
T3 peptide: RLLEFYLAM
Description: cytokine release.

B1: T11.8-10-17 (TCR, V domains shown)
Valpha: QKEVEQNSGPLSVPEGAIASLNCTYSDRGSQSFFWYRQYSGKSPELIMFIYSNGDKEDGRFTAQLNKASQYVSLLIRDSQPSDSATYLCAADDKIIFGKGTRLHILP
Vbeta: DAGVIQSPRHEVTEMGQEVTLRCKPISGHDYLFWYRQTMMRGLELLIYFNNNVPIDDSGMPEDRFSAKMPNASFSTLKIQPSEPRDSAVYFCASSRGGSGYTFGSGTRLTVV
Turning to B1, the binding result is listed as “recognises” in experiment [1], “no recognition” in experiment [2] and “no recognition” in experiment [3].
